One block for each binder: values may come before it.
What was measured:
[1] = target: T1, active human C1s (CompTech A104 C1s Enzyme) (human, UniProt P09871 16-688); assay: BLI (Octet RED96e), antibody on AHC biosensor; HuC1s Form: Active; R^2 0.9994
T1 construct: also called human active C1s; active C1s protein
T1 sequence (looked up): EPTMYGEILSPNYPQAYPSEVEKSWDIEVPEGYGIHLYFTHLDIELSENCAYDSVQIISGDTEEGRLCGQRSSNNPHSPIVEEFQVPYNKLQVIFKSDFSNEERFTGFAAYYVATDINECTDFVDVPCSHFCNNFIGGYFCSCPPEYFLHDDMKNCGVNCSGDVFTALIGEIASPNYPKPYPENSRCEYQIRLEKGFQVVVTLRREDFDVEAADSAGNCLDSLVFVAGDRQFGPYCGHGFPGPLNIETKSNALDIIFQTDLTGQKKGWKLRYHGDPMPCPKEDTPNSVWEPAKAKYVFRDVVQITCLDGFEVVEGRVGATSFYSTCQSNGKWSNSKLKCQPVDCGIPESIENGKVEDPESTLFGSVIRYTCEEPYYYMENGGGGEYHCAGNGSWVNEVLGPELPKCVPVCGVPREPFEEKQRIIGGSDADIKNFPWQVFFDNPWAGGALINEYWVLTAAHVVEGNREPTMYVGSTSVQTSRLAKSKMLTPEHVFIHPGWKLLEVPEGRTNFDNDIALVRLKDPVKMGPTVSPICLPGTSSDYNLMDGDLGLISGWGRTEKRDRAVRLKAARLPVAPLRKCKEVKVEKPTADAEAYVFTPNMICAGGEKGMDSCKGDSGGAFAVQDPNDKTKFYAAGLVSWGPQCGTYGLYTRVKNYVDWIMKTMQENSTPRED
Method: Bio-Layer Interferometry technology was used for anti-C1s antibody affinity measurement and binding kinetics determinations with OCTET® RED96e system (Sartorius AG). Pre-hydrated Anti-Human IgG Fc Capture (AHC) biosensors were first equilibrated in 1×KB (Kinetic Buffer, 1×PBS pH 7.4+0.02% Tween-20+0.1% BSA) for 120 sec for the first baseline, followed by loading with […] anti-C1s antibody (2-7, FIG. 3A; 2-8, FIG. 3B; hz2-7(H1L2), FIG. 3C; hz2-8(H1L2 G80A/T82A, FIG. 3D) onto AHC biosensors for 240 sec. Then, the second baseline signal was established for 120 sec before association with various concentrations of active human C1s (CompTech A104) for 240-360 sec. At last, analyte was dissociated in 1×KB for 360 sec. Anti-C1s antibodies 2-7 and 2-8 were also analyzed against human C1s proenzyme (CompTech A103) (data not shown). Data analysis was carried out using OCTET® Data Analysis HT Software (Sartorius AG). KD, kₒₙ, koff and R² values were calculated for each antibody and target combination, as summarized in FIG. 3E showing high affinity binding with KD values in the low nanomolar to picomolar range.

[2] = target: T2, human C1s deletion mutant 3 (NHCΔ33) (human, UniProt P09871 16-404); assay: ELISA, C1s fragment coated on plate; hz2-8(H1L2 G80A), first of the two values
T2 construct: C-terminal 6xHis tag; also called human C1s (NHCΔ33); C1s (NHCΔ33)
T2 sequence: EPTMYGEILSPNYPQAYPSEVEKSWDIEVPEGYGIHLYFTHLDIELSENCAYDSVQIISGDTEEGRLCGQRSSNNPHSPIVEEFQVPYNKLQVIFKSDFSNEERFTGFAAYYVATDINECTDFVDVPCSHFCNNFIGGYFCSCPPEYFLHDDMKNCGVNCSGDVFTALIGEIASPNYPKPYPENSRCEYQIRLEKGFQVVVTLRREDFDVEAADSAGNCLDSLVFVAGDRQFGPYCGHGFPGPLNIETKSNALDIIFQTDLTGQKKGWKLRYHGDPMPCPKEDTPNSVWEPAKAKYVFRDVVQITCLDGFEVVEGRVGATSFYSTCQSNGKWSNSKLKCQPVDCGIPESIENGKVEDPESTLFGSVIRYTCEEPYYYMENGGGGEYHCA
Method: ELISA was carried out by first coating 96-well plates with 200 ng/well of full-length or truncated C1s proteins overnight. The next morning, plates were blocked with SuperBlock T20 blocking buffer (Thermo Scientific 37536) for 1 h with gentle shaking. Then, various concentrations of anti-C1s antibodies diluted in SuperBlock T20 blocking buffer were added to the plates and incubated for 1 h with gentle shaking. Mouse IgG (Sigma-Aldrich 15381) and human IgG1 (BioXCell BP0297) were used as negative controls. The plates were washed before incubating with HRP conjugated secondary antibodies diluted in SuperBlock T20 blocking buffer (goat anti-mouse IgG (H+L) cross-adsorbed secondary antibody HRP (Invitrogen G-21040) or goat anti-human IgG antibody, HRP conjugate (Millipore AP309P)) for 1 h with gentle shaking. At last, the plates were washed and color developed with ELISA liquid HRP substrate (Sigma-Aldrich), followed by stopping the reaction with addition of 1M H₂SO₄ in the same volume as the ELISA liquid substrate. Bound antibody was measured by absorbance at OD₄₅₀ₙₘ.
Binding of various anti-C1s antibodies to human C1s (NHCΔ33) (SEQ ID NO: 111) was carried out by ELISA as described in Example 4, and results are shown in FIG. 6A.

Kd [1]: 0.14 nM | koff [1]: 4.8e-05 s⁻¹ | kon [1]: 350000 M⁻¹ s⁻¹
B1: Anti-C1s antibody 2-7 (antibody, human IgG1, kappa, V domains shown)
VH: EVKLEESGGGLVPPGGSMKLSCVASGFTFSNYFMNWVRQSPEKGLEWVAEIRLKFTNYATHYAESVEGRFTISRDDSKSSVYLQMNNLRAEDTGIYYCTRDYGSRNGYFDYWGQGTTLTVSS
VL: DIVMTQAAPSVPVTPGESVSISCRSSKSLLHSNGNTFLYWFLQRPGQSPQLLIYRMSNLASGVPDRFSGSGSGTAFTLRVSRVEAEDVGIYYCMQHLEYPYTFGGGTKLEIKT
notes: the HC/LC entries may hold it too; also called clone 2-7

EC50 [2]: 8 ng/mL
B2: Anti-C1s antibody hz2-8 (H1L2 G80A) (antibody, V domains shown)
VH: QVQLVQSGAEVKKPGASVKVSCKASGFNIKEYYMHWVRQAPEQGLEWMGWIDPENADTIYAQKFQGRVTITADTSTNTAYMELSSLRSEDTAVYYCARSRLFFAYWGQGTLVTVSS
VL: DIQMTQSPKSLSASVGDRVTITCRASQDVRTALDWYQQKPGQSPKLLIYSASYRYSGVPSRFSGSGSGTDFTLTISSLQPEDFATYYCQQQYTTPYTFGQGTKLEIKR
notes: Humanized variant with G80A in HC CDR2 (already in the entry), human IgG1 / kappa

— patent US20230051715A1 (MABWELL THERAPEUTICS, published 2023)
